Results from patent US6342220 (Genentech, dated 2002).

Target: T1, mpl-Ig (human, UniProt P40238 26-491, limits assumed)
T1 construct: From conditioned media of mpl-Ig-transfected 293 cells; also called mpl-IgG; not shown: human IgG Fc (the fusion is captured with rabbit anti-human IgG Fc)
T1 sequence (looked up): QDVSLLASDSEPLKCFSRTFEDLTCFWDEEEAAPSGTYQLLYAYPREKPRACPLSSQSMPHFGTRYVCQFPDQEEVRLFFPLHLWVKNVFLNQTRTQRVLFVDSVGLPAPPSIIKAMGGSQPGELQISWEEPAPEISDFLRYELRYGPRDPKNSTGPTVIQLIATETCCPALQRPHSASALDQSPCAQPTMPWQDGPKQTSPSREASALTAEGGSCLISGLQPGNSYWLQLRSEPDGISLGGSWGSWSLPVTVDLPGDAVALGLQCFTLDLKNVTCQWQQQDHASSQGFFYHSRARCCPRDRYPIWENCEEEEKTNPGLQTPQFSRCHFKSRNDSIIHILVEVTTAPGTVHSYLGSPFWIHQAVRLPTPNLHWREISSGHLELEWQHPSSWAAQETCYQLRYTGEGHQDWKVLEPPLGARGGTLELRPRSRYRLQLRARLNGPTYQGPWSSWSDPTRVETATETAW
Test: competition ELISA, biotinylated TPO on captured mpl-Ig

IC50: 0.64 nM
B1: 12E10 Fab′2 (other)
VH: QVQLQQSGPGLVKPSETLSLTCTVSGDSISSYYWSWIRQPPGKGLEWIGYIYYSGSTNYNPSLKSRVTISVDTSKSQFSLKLSSVTAADTAVYYCARGRYFDVWGRGTMVTVSS
VL: SYVLTQPPSVSGSPGQSITISCTGTSSDVGGYNYVSWYQQHPGKAPKLMIYEGSKRPSGVSNRFSGSKSGNTASLTISGLQAEDEADYYCSSYTTRSTRVFGGGTKLTVL
notes: F(ab′)2 with leucine zipper; A lambda version of the Fab′2 vector is not described; copies: 2 + 2
